The target of the experiment is LINGO-1 (human) (UniProt Q96FE5). The experiment in a line: FACS binding to LINGO-1; the value is listed under the plot without a name and agrees with the half-maximal point of the curve (x axis: Ab (ng/ml) log). Background: Flow cytometry measures light scatter and fluorescence of single cells or particles in a stream.

B1: N-terminally PEGylated Li113 (Fab, V domains shown)
VH: EVQLLESGGGLVQPGGSLRLSCAASGFTFSIYPMFWVRQAPGKGLEWVSWIGPSGGITKYADSVKGRFTISRDNSKNTLYLQMNSLRAEDTATYYCAREGTYDWYLDLWGRGTLVTVSS
VL: DIQMTQSPSFLSASVGDSVAITCRASQDISRYLAWYQQRPGKAPKLLIYDASNLQTGVPSRFSGSGSGTDFTFTITSLQPEDFGTYYCQQYDTLHPSFGPGTTVDIK
modifications: N-terminal 20 kDa methoxy-polyethyleneglycol propionaldehyde; chain carrying it not stated
By EC50 is commonly meant the concentration at which the effect is half-maximal. Take B1: the EC50 turned out to be 0.182 µg/mL.

For the origin of these results see patent publication US20130323786A1.
